In the domain aggregation screens of Martell et al. (2025):

Experiment: soluble fraction after stress (log2 fold change); higher = more stays soluble; pooled small domains, quantitative proteomics
Conditions: stress: pH 4
How it was run: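 After pH 4 stress, pooled custom libraries of small protein domains were quantified with high-throughput quantitative proteomics. Aggregation propensity is taken from the fold change in each domain's soluble amount following the acid stress. The scale is log2, where higher values mean more stayed soluble.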

HMTLDDSFYQKADEIIANHTKEERSLIPIIQDIQAEYRYLPPELLTYVAKEIGITDARAYSVASFYENFS
soluble fraction (log2): -1.21

HMRGLVPEIVGTLEGEIRAGTLAVGQKLPTEAEIMARFDVSRTVVREALSRLQASDLVETRHGIGTFVSAR
soluble fraction (log2): 0.163

HMGGKWKAIIIYHLKNGPKRFGELRRALISSTETVLSNQLKQLEQDGLVSRQVFGTKPPLKTVYSLTDFG
soluble fraction (log2): -0.906

HMDMAYEVVKAFHDLQDYKDVKGGKVYHHYDVGDTYPRQGLDPAPDETRIEELLSSGNAQGVPLIAEV
soluble fraction (log2): -0.219

HMGRKEIIVPNLLGKYAIEAGTILKNAGLLEGQAREENSDTYPAGQIMDQFPKANTPANENDKVDYVVSI
soluble fraction (log2): -0.202

HMKLTINIDAAHDGKTIKQLFAEKGYSLELIKKFKYDGAIEVNGERKTVRWVLREGDLLVLEAN
soluble fraction (log2): -0.683

HMLEEIDYPEEQLQLLFAWSRDHVQSTPPGLPVVDDHVWHILVRGYGATDQRTEAFALLASYAGFP
soluble fraction (log2): -0.722

HMTLHDLFPQAVEFVSEKEMISTAELQRKLMISYNSAAKIIDQLLHVDFIQKSESAGKYSVLIK
soluble fraction (log2): -0.486

HMFSSVSVPAELSNQRFDKVVAELTPDLSRSKIKQLILLGKVLLNGEVTPPKQKVETGDEIEIFYTRQIE
soluble fraction (log2): -0.23

HMQSVSANSVQKQLADIIDGEDKTHPLSDRELTEKLVAQGVQISRRTVAKYREAMGIPGASGRKQ
soluble fraction (log2): 0.107

HMVQARDQNIEEGRQLVLRELDRLDLVNESLTDVAADMNMKSVEDMYAAIGAGDLRVGQVVHAVLKRAD
soluble fraction (log2): -0.218

HMETLKLRDSGKEVQSLQELLQRQGLSAPMNGIFDEATKSSVIAFQKANGLDADGIVGYKSWETLFTAG
soluble fraction (log2): -0.349

HMSTDNINYKNILIASLLIHAAKIDENYTENEKNIIKKALIELDEIDSKKADEIMILAEKKE
soluble fraction (log2): -0.271

HMITKENYLEKIKEIKVNEFPASMRELYDFFNEATRNGTDWSAYEEGNVKYVVDAYLERLNLLYKSN
soluble fraction (log2): -0.892

HMSWEDSLLKQAREIIDMYPQKRSAVGPLLHLAQSKDGYISDDSISVISKLVGITEVQLKSVSTFYSMYK
soluble fraction (log2): -1.23

HMTVDAVALGRRVRHLRKQAGLTLDQLAERTGVSGSHLSLVENARREPRLSLVQRIAEVLGVPVEDL
soluble fraction (log2): -0.602

HMNKNLQLMINEIKKGLASEDIETRKKSVLMLSRIDAPEIIQVLEPLKDDSSEEIRKISSKIISVLSKKYT
soluble fraction (log2): 0.332

HMDNPKGNLQEAVQAKGNEPIEYRVLNVDGPDHAREFKIAVFIGGKRKGTGVGNSKKKAEEIAAEKAFKRM
soluble fraction (log2): -0.189

HMTIPRLPFAFAKRFGIVLDNRPSGFVAAHKEGLLPHVLLEVQRFLGDAYTLEVVSDDDFERILGQVYQT
soluble fraction (log2): -2.03

HMGEGTAVGKALKFLAAQGKKFAPELLDMAGSLTGVEALSKLGDAIKGDPELSELDKRILLAELETDAV
soluble fraction (log2): -0.744

HMHDITPAVAETFKQLRAERGLSLSQAAQLTGVSKAMLGQIERGQSSPTVSTLWKIATGFNVAFSVFL
soluble fraction (log2): -0.309

HMRGDEDTGVWPTPMKRAYIDSLLKGYPTGVTMIVKPPGASHTTKWMILDGANRARALRDFMNDEFMI
soluble fraction (log2): -0.155

HMSEQVQLQAQVEDDLIGKRLDQVVAQLFPDYSRSRLQGWIKDGSLTVDGESRRPRDKMMGGEVVRVEATL
soluble fraction (log2): -0.347

HMREFQVMKQELQEMVHQRLDMSTELSDEAIGDVIDEVIMEKSRNMYISSVTKLTLRQELFNAIR
soluble fraction (log2): -2.14

HMEALGLSPRQVDVLRLLVEGRSNKMIMRELELSESTVKTHLQAIFRRLGVSSRTQAVVAAARLGL
soluble fraction (log2): -0.418

HMTSRFITTEEGTLYVDADGRKVSGWQTIDGSRYYFDEHGIRQSGTIEVNGETYVLDEDGVL
soluble fraction (log2): -1.51

HMELRIREILESKDIKVSSLAETVGITRANMSNIVNGKSTPSLETLEKIANALGVDITELFA
soluble fraction (log2): -0.573

HMPKNRTDYVQDVLKSLGRPAHYKEITQIINAMLPKEAQYSAKSIQVVLGSSPLFIRVGTGTYALVE
soluble fraction (log2): -0.79

HMTEIILTARSGRHAVRHRLEGLGYTLTPEELERVHQRFLAVADAKKEVFDEDLHALMADERGT
soluble fraction (log2): -0.467

HMDVDKQLDQLLAAMIPDKSLRQTIKTKAFNELVDNELADKDISSWTKQTMDVFMTRAEDMFGAM
soluble fraction (log2): -1.43

HMSLPTYVQISEAIARRITAGQWLDGERLPPERTMAAEFGVAVGTLRKALSRLQDQKLLRRLQGSGNYINI
soluble fraction (log2): -0.264

HMERLSNQVYAILKEMIADYRFNPGARINVEQIAKEVGASRTPVWEAVHRLVQEGLLENIPNRGVFML
soluble fraction (log2): -1.11

HMAEVGDFTLAELIKVLFNEAGVLKAPVELRNDNTGGLQYRVGAYTDSETGWETIASIADLKGA
soluble fraction (log2): -1.74

HMTKGVKVEIGTEEASVDLYVVMEYGTPIQKAAYDAQESVRKAIETMTNLHVVRVDVHVQGVSF
soluble fraction (log2): ≥ 0.43

HMETDGGDLTPRERDVLSLIGRGLRNAEAASALGLSEHTIAGHIKSVYSKLGISTRAEAALLASRLGL
soluble fraction (log2): -0.261

HMEFVEERRNRMLDYIGENKRADVPELARHFDVTEVTIRRDLLILEQDGKLIRTHGGAMINR
soluble fraction (log2): -0.278

HMNLDELGNRIREQRIKQRLKQQDIANALMLSAQAVSKWERGENAPDISVLPDLVKILGVSVDWLLTGP
soluble fraction (log2): -1.15

HMAKLGITQREQEVLQLLVTGKTYKEIAAELFISLPTVKTHVSNIYSKAKVRNRLELSNLINYI
soluble fraction (log2): -1.22

HMGISQAQAMQALRKLIEEEDKHTPLSDQTLMERLKAAGIPLARRTIAKYRESLGIPSAAQRK
soluble fraction (log2): -0.0327

HMISKTFEINEDNINNRLDIFLANQFDNLSRGIVQKLIESHSVSVSGNFVEKDYKLKLGDIIDVEINLS
soluble fraction (log2): -0.853

HMEPKIKQIVPNVVNYPVEDAKNVLVNSGLIVQIRGQGNIVYDQVPKGGAEVTRGTTVILDLNPPPGA
soluble fraction (log2): -0.768

HMTKGFSIQDISLSKSTMTFLQQNKITDLASLLSMSKSQIEGMKGFKPKMIQEIEKNLDKVGLVLAQD
soluble fraction (log2): -0.228

HMAGGNHPTRLELLDSAAHIAERDGTSALTVDAITKSAGHAKGTFYIHFDDRADLLVEMHRR
soluble fraction (log2): -0.323

HMAEKNALWEEDAVYAADSSALARDGYDAIVRTDKGGKKGYLVVGTGGRERFMPLQTLVMLGYLKK
soluble fraction (log2): -0.0478

HMKTGNPYAQRNTADMYNYGRGIEKDSYLAFVWYFAAYKQGNDNAKPQIDSITASGHLSPNQQLHAKIE
soluble fraction (log2): -0.304

HMAKIATTVYEQIRTAILNGELSNSERLVEEDLAVSMGISRTPVREALRRLAAEGLVDVSPNRGARVAE
soluble fraction (log2): -0.778

HMAEPYDEDKVMEHLYIKGKDVVIAHLKHLKEHNEHVWLKKGVEWMQKNQDRLGFDMMEVIYVVHNH
soluble fraction (log2): -1.18

HMDKEQVTFIFRDIDIALRSLDYPIKDIKNTLNIIKSEFSNSKSTELNEQKINFENILKEAISILENND
soluble fraction (log2): -0.969

HMSPFYILDEVEAALDDTNLGRLLEIYEELRENSQLLVITHQKRTMEVGDALYGVTMRGDGVSAVISQRLR
soluble fraction (log2): -1.74

HMGEQLALLERARTLLEDETLETEVQKELEMLLEDIEAARAEANATQLEDLFEELADLLFDLE
soluble fraction (log2): -0.193

HMDIYLDDINRKILHLLSQGVKTKSLRDYIDLSMSAIEKRKKHLKDLFLIEDGKDETLLSEARKKGF
soluble fraction (log2): -0.398

HMGQLSDREALTVLAREALVELPRAAGDYRNGRTAALQSLVGRVMRKTAGRGNPALLQEIFRSLL
soluble fraction (log2): 0.00453

HMKKTFSKSSVMEAIFRDIPNITIPNAHEVYTLIKNISVMNKRKSITSEDIEKAYDALGLTP
soluble fraction (log2): 0.145

HMVGNYYDILGVPETATQDAIKKAFRSLAQQHHPDKNPDDPGAEAMFKKVSEAYQVLSDPDKRQTYDASL
soluble fraction (log2): -0.0611

HMEFPYISGVDVGTISNKEFARFETTKASDIVIALDKSGIPFSARFGDSEIVLTYDGSYKEEVEEIIAKV
soluble fraction (log2): -0.115

HMNNQVTFSKFLNEVEDGRVVEVNIQGNNITGVLSDGSKFKTFSPNYPNLVEKLSEKGVSINASPL
soluble fraction (log2): 0.153

HMGFEALRSRHRITAREMEVLQHMLAGRSNAEIGHTLGLSERTVKTHITSIFNKLGVDSRAQLGYMLK
soluble fraction (log2): 0.366

HMGKMTSTLGVHIAAYRKEHGETVAQFASRSGVSVSSIRRIESGISDPSADLVWKISRHMGMTMDDLFKKM
soluble fraction (log2): -0.0972

HMSDAGAIEPTIKEILASNPKAVEEYLAGNIKNINALIGQSMKALHGKADPQTVRNLLAKLLDEM
soluble fraction (log2): -0.487

HMPRPLVAPMPGLIVRVTAVVGDSVDAGQGLVVMEAMKMENELRTTTAGVVKTVHVQPGVAVEKGALLIEF
soluble fraction (log2): -0.766

HMGIILDWELFEQFADKLKRKKVDFVIEPYLRFEGRRGEQSTLFIKDPSGNYLEFKAFKNIDMLFEK
soluble fraction (log2): -1.38

HMKKKSYIVSFATDEDAQRFAREGFEVISLSGRQITVSLKGEMMPLVKALGSYQVVGLETVA
soluble fraction (log2): -0.72

HMNLGLTGDPSVLYSILLQRGDSSRADLQRQTGWSLSKTTLVLNQLLAQKLIVQVGAGRSTQYRVIN
soluble fraction (log2): -0.196

HMYVTGETIRHLRTQRRMTQEQLAETLGVTGKAVSKWETGRGFPDMSLLEPLARALRISVPELLSGE
soluble fraction (log2): 0.0292

HMDSATDRVALKELLNTLSARERTIITLRYFSDQTQTQVAKSLGISQVQVSRLENAILQRLRKL
soluble fraction (log2): -0.271

HMDRKFFYEDQYQDYLGEELKVSFFDTDNKKTVRGTLSEVTPHGIKINLEQETQEIPFSSIIQANLI
soluble fraction (log2): -0.44

HMTHANAALTPRHRLKVARLVVDEGWPVSEVAARFQVSWPTVKRWADRYRAGQSMQDRSSRP
soluble fraction (log2): 0.228

HMFQYEKIKDYILTGLEEGTWQAGDKIPSEAELVMSLNVSRMTVNRAVRELANSGLLVRIPGAGTFVATE
soluble fraction (log2): -0.886

HMRSFGTVAQARGRWKAFYVGPDKRRHTPGVTFSNPIRAQGWLAQELTLIELGQWTPPAQRREKAEVAS
soluble fraction (log2): -0.43

HMNSEAVQNVIDKISALPDDITAKAKSQIEEARAAYEALSDSEKARVTNYSTLVAAEKKLASVVKD
soluble fraction (log2): 0.121

HMSDYKSYLQELVQTDKKSLSYNVVKETGPAHDKTFEVEVEVDGIIYAHGVGKSKKEAEQNAAKNAIMISA
soluble fraction (log2): -0.24

HMSKISKENEQQVIQIVQTLLLNVQDKSLITTQILNEKINLAVSLDTKYKENLDRDYIIEELIRRYSVW
soluble fraction (log2): -2.54

HMSRARSRQTSMLEAVAGLGPARRRALLKQFGGLQGVLRAGIEDLSRAPGIGPALAQAIFEHLHPGA
soluble fraction (log2): -0.0797

HMDLSLQTFNELKTELTNNKITIDQFSEKINEFDITSDIFEISRELFLDDTLSLEDYLVVIENVLIN
soluble fraction (log2): -0.782

HMFFFILNKGAKSGGEITHAVLNGSIVSKPAGWDAFHGLVLAKEKLSSEEIQRQMKELGVEMEIVPL
soluble fraction (log2): -1.18

HMGLSAEAARMAIQDAGLSKEDFAQKLGIKKVERVVEWEAGTSKPTFVQAQKIANATNIPFGYLFLVNPPK
soluble fraction (log2): 0.0939
